Assay: yeast display, Sf9 membrane polyspecificity reagent, FACS + sequencing; frameworks hold sequencing errors
Summary of the method: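 Sorting gates, low and high (top ~1%), were placed on anti-HA fluorescence to track expression and on streptavidin fluorescence to track reagent binding. A clone's polyreactivity label is taken from the gate it came out of. The reagent was 10% biotinylated, detergent-solubilized Sf9 membrane, applied for 1 hour at 4 °C to galactose-induced yeast display cells.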

QVQLVESGGGLVQAGGSLRLSCAASGLIFYRYAMGWYRQAPGKERELVATISSGGSTNYADSVKGRFTISRDNAKNTVYLQMNSLKPEDTAVYYCAASRWLYYYLFEYWGQGTQGTVSS
polyreactivity (PSR sort gate): high polyreactivity

QVQLVESGGGLVQAGGSLRLSCAASGLIFYRYAMGWYRQAPRKERELVARISYRTTSTYYADSVKGRFTISRDNAKNNVYLQMNSLKPEDTAVYYCAASRFAYRVRYLFEYWGHGTQVTVSS
polyreactivity (PSR sort gate): high polyreactivity

QVQLVESGGGLVQAGGSLRLSCAASGLIFYRYTMGWYRQAPGKERELVAAIDDSDTSTYYADSVKGRFTISRDNAKNTVYLQMNSLKPEDTAVYYCAAVPLAPYAVRSRLDFDYWGQGTQVTVSS
polyreactivity (PSR sort gate): low polyreactivity

QVQLVESGGGLVQAGGSLRLSCAASGLIFYRYTMGWYRQAPGKERELVAAITRSGSTYYADSVKGRFTISRDNAKNTVYLQMNSLKPEDTAVYYCAADVTLYYRGRRYYYWGQGTQVTVSS
polyreactivity (PSR sort gate): high polyreactivity

QVQLVESGGGLVQAGGSLRLSCAASGLIFYSYAMGWYRQAPGKERELVAAINGGGGSTYYADSVKGRFTISRDNAKNTVYLQMNSLKPEDTAVYYCAAVRSIVDWGLMYYWGQGTQVTVSS
polyreactivity (PSR sort gate): high polyreactivity

QVQLVESGGGLVQAGGSLRLSCAASGLIFYVYAMGWYRQAPGKERELVAAIRGSGARTYYADSVKGRFTISRDNAKNTVYLQMNSLKPEDTAVYYCNARQRYRPSYDYWGQGTQVTVSS
polyreactivity (PSR sort gate): high polyreactivity

QVQLVESGGGLVQAGGSLRLSCAASGLIFYWYTMGWYRQAPGKEREFVAAITWGGGGTYYADSVKGRFTISRDKAKNTVYLQMNSLKPEDTAVYYCAAEEQVVKAHGDYWGQGTQVTVSS
polyreactivity (PSR sort gate): low polyreactivity

QVQLVESGGGLVQAGGSLRLSCAASGLIFYYYAIGWYRQAPGKERELVAAITTGGGTYYADSVKGRFSISRVNAKNTVYLQMNSLKPEDTAVYYCAVYYRSYWGYEYWGQGTQVTVSS
polyreactivity (PSR sort gate): high polyreactivity

QVQLVESGGGLVQAGGSLRLSCAASGLIFYYYAMGWYRPAPGKERELVAAISRRGGSTYYADSVKGRFTISRDNAKNTVYLQMNSLKPEDTAVYYCNKYRSYWSGPSYWREYDYWGQGTQVTVSS
polyreactivity (PSR sort gate): high polyreactivity

QVQLVESGGGLVQAGGSLRLSCAASGLIFYYYAMGWYRQAPGKERELVAAITWTAGSTSYADSVKGRFTISRDNAKNTVYLQMNSLKPEDTAVYYCAADYRHDTFSNEYDYWGQGTQVTVSS
polyreactivity (PSR sort gate): low polyreactivity

QVQLVESGGGLVQAGGSLRLSCAASGLIIRYYDMGWYRQAPGKEREFVAAITWNGGSTYADSVKGRFTISRDNAKNTVYLQMNSLKPEDTAVYYCAADLSYWDDFDYWGHGTQVTVSS
polyreactivity (PSR sort gate): low polyreactivity

QVQLVESGGGLVQAGGSLRLSCAASGLIIYRYAMGWYRQAPGKERELVAAISSTGGRTYYADSVKGRFTISRDNAKNTVYLQMNSLKPEDTAVYYCNADYGWKYVQYYYWGQGTQVTVSS
polyreactivity (PSR sort gate): high polyreactivity

QVQLVESGGGLVQAGGSLRLSCAASGLIIYRYGMGWYRQAPGKERELVAAISYSGSSSYYADSVKGRFTISRDNAKNTVYLQMNSLKPEDTAVYYCAARHGPRSEAMYYWGQGTQVTVSS
polyreactivity (PSR sort gate): high polyreactivity

QVQLVESGGGLVQAGGSLRLSCAASGLIIYYYAMGWYRQAPGKERELVAAISINGGSTYYADSVKGRFTISRDNAKNTVYLQMNSLIPEDTAVYYCAAFRRRMEYWGQGTQVTVSS
polyreactivity (PSR sort gate): high polyreactivity

QVQLVESGGGLVQAGGSLRLSCAASGLILDGNVMGWYRQAPGKERELVAAINTSGGSTYYADSVKGRFTISRDNAKNTVYLQMNSLKPEDTAVYYCAARYPSDYDYWGQGTQVTVSS
polyreactivity (PSR sort gate): low polyreactivity

QVQLVESGGGLVQAGGSLRLSCAASGLILRKYAMGWYRQAPGKEREFVAAITQTGSRTYYADSVKGRFTISRDNAKNTVYLQMNSLKPEDTAVYYCNAVNYRSSRDSGYWGQGTQVTVSS
polyreactivity (PSR sort gate): high polyreactivity

QVQLVESGGGLVQAGGSLRLSCAASGLILRRYAMGWYRQAPGKDRELVAAISWSGGRTYYADSVKGRFTISRDNAKNTVYLQMISLKPEDTAVYYCAAGYIYWYYSYDYWGQGTQGTVSS
polyreactivity (PSR sort gate): high polyreactivity

QVQLVESGGGLVQAGGSLRLSCAASGLILSAYAMGWYRQAPGKERELVAAISKRGGSTYYADSVKGRFTISRDNAKNTVYSQMNSLKPEDTAVYYCAADYTKHYWGQGTQVTVSS
polyreactivity (PSR sort gate): high polyreactivity

QVQLVESGGGLVQAGGSLRLSCAASGLILSTYAMGWYRQAPGKERELVAAITWRSGSTYYADSVKGRFTISRDNAKNTVYLQMNSLKPEDTAVYYCNVAPTFPYNGYEYWGQGTQVTVSS
polyreactivity (PSR sort gate): high polyreactivity

QVQLVESGGGLVQAGGSLRLSCAASGLILVYYAMGWYRQAPGKERELVAAITPGGSTKYADSVKGRFTISRDNAKNTVYFQMNSLKPEDTAVYYCAVDGDWHEPGNYIYEYDYWGQGTQVTVSS
polyreactivity (PSR sort gate): low polyreactivity

QVQLVESGGGLVQAGGSLRLSCAASGLILYHYAMGWYREAPGKERELVAAISSGGITHYADSVKGRFTISRDNAKNTVYLQMNILKPEDNAVYYCNAVSYYWHDFDYWGQGTQVTVSS
polyreactivity (PSR sort gate): high polyreactivity

QVQLVESGGGLVQAGGSLRLSCAASGLILYSYAMGWYRQAPGKERELVADISSGGITNYADSVKGRFTISRDNAKNTVYLQMNSLKPEDTAFYYCNADSYGGNLYIWEYYYWGQGTQVTVSS
polyreactivity (PSR sort gate): low polyreactivity

QVQLVESGGGLVQAGGSLRLSCAASGLILYSYAMGWYRQAPGKERELVADISSGGITNYADSVKGRFTISRDNAKNTVYLQMNSLKPEDTAVYYCAADTRPVNYILYDYWGQGTQVTVSS
polyreactivity (PSR sort gate): low polyreactivity

QVQLVESGGGLVQAGGSLRLSCAASGLILYSYTMGRYRHAPGKERELVAVISRSGTSTYYADSVKGRFTISRDNAKNTVYLQMNSLKREDTSFYFCAALSRSGPYAYEYWGQGTQVSVSS
polyreactivity (PSR sort gate): high polyreactivity

QVQLVESGGGLVQAGGSLRLSCAASGLIQPYYTMGWYRQAPGKERELVAAIRRTTGSTFYADSVKGRFTISRDNAKNTVYLQMNSLKPEETAVYYCNVRRTPYSHWTGGGMDYWGQGTQVTVSS
polyreactivity (PSR sort gate): high polyreactivity

QVQLVESGGGLVQAGGSLRLSCAASGLISLYYAMGWYRQAPGKERELVARITGSGGDTYYADSVKGRFTISRDNAKNTVYLQMNSLKPEDTAVSYCAAPALDWGQGTQVTVSS
polyreactivity (PSR sort gate): low polyreactivity

QVQLVESGGGLVQAGGSLRLSCAASGLISRINAMGWYRQAPGKERELVAAISSGGSTNYADSVKGRFTISRDNAKNTVYLQMNSLKPEDTAVYYCAAGYIRKYSAFRYNYWGQGTQVTVSS
polyreactivity (PSR sort gate): high polyreactivity

QVQLVESGGGLVQAGGSLRLSCAASGLISRRNAMGWYRQAPGKERELVAAISTGSSTNYADSVKGRFTLSRDNAKNTVYLQMNSLKPEDSAVYYCAATQYWWSTLGIRDDYWGQGTQVTVSS
polyreactivity (PSR sort gate): low polyreactivity

QVQLVESGGGLVQAGGSLRLSCAASGLLFGRNVMGWYRQGPGKERELVAAISWSGGRTYYADSVKGRFTISRDNAKNTVYLQMNSLKPEDTAVYYCAADDGPGFDYWGQGTQVTESS
polyreactivity (PSR sort gate): high polyreactivity

QVQLVESGGGLVQAGGSLRLSCAASGLNFKLYAMGWYRQAPGKEREFVATITGIGGSTYYADSVKGRFTISRDNAKNTVYLQMNSLKPEVTAVYYCAGDAWFLPYNYWGQGTQVTVSS
polyreactivity (PSR sort gate): low polyreactivity

QVQLVESGGGLVQAGGSLRLSCAASGLNFSGYAMGWYRQAPGKESEMVAAINSGTSTTYADSVKARFTISRDNAKNTVYLQMNSMKPDDTAVYSCSATLEGGWWATYGSDYWGRGTQVTVSS
polyreactivity (PSR sort gate): low polyreactivity

QVQLVESGGGLVQAGGSLRLSCAASGLNFSHYTMGWYRQAPGKERELVAAITSSGGSTYYADSVKGRFTISRDNGKNTVYLQMNSLKPVDTAVYYCNKALTSKDYPVRTVERDYWGQGTQVTVSS
polyreactivity (PSR sort gate): low polyreactivity

QVQLVESGGGLVQAGGSLRLSCAASGLNFTYNAMGWSRQAPGKESELVAAITRSGGSTYYADSVKGRFTISRDNAKNTVYLQMNSLKPEDTAVYYCAKDDSAYSKYGYWGQGTQVTVSS
polyreactivity (PSR sort gate): low polyreactivity

QVQLVESGGGLVQAGGSLRLSCAASGLNFYSNAMGWYRQAPGKERELVARISTGGSTYADSVKGRFTISRDNAKNTVYLQMNSLKPEDTAVYYCAKLPPRGIDDEYWGQGSQVTVSS
polyreactivity (PSR sort gate): low polyreactivity

QVQLVESGGGLVQAGGSLRLSCAASGLNLAQYVMGWYRQAPGKERELVAAITWRGGGTYYADSVKGRFTISRDNAKYTVYLQMNSLKPEDTAVYYCNAVLYDGYVYNPGSTDDVDYWGQGTLVTVSS
polyreactivity (PSR sort gate): high polyreactivity

QVQLVESGGGLVQAGGSLRLSCAASGLSCYPYAMGWYRQAPGKEMELVAAITSGDSTYYADSVKGRFTISRDNAKNTVYLQMNSLKPVDTAVYYCAKPDWVEVVTDFEYWGQGTQVTVSS
polyreactivity (PSR sort gate): low polyreactivity

QVQLVESGGGLVQAGGSLRLSCAASGLSSLRMLWDGIDRRLGKKGSWLPLITSGGDSTNYADSVKGRFTISRDIAKNTVYLQMNSLKPEDTAVYYCAADLDYPYGYWGQGTQVTVSS
polyreactivity (PSR sort gate): low polyreactivity

QVQLVESGGGLVQAGGSLRLSCAASGLTCGKYAMGWYRQAPGKERELVAAINSSGGSTYYADSVKGRFTISRDNAKNTVYLQMNSLKPEDTAVYYCAVAVYRLIYFEYNYWGQGTQVTVSS
polyreactivity (PSR sort gate): low polyreactivity

QVQLVESGGGLVQAGGSLRLSCAASGLTFAANAMGWYRQAPGKERELVAAITSSGGSTYYADSVKGRFTISRDNAKNTVYLQMNSLKPEDTAVYYCAARASRPRFGYWGQGTLVTVSS
polyreactivity (PSR sort gate): high polyreactivity

QVQLVESGGGLVQAGGSLRLSCAASGLTFAFNVMGWYRQAPGKERELVAAISASGASTYYADSVKGRFTISRDTAKNTVYLQMNSLKPEDTAVYYCAALGYCFSYRYDYWGQGTQVTVSS
polyreactivity (PSR sort gate): high polyreactivity

QVQLVESGGGLVQAGGSLRLSCAASGLTFAFYAMGWYRQAPGKEMELVARIRTSAITYYADSVKGSFTISRDNAKNTVYLQMNSLKPEDTAVYYCAAEEGRVFSGGYDYWGQGTQVTVSS
polyreactivity (PSR sort gate): high polyreactivity

QVQLVESGGGLVQAGGSLRLSCAASGLTFAGNAMGWSRQAPGTERELVAAITWTGDRTYYADSVKGRFTISRDNAKNTVYLQMNCLKPEDTAVYYCAAQVRSLYSPGWYYYWGQGTQVTVSS
polyreactivity (PSR sort gate): high polyreactivity

QVQLVESGGGLVQAGGSLRLSCAASGLTFAINTMGWYRPAPGTERELVAAITGSGGSTYYADSVKGRFTISRDNAKNTVYLQMNSLKPEDTAVYDCAAELLYVQGYAMDYWGQGTQVTVSS
polyreactivity (PSR sort gate): low polyreactivity
